Measurements reported in paper PMC10933773, “Phosphorylation by ATR triggers FANCD2 chromatin loading and activates the Fanconi anemia pathway”.

Columns and labels:
Conditions in all cases: protein: recombinant;recombinant; tags: FLAG-HA;His; copies: 1;1; label: radiolabelled; fork: 29 bp duplex (S3[1-29] with S4[22-50]), unpaired arms 21 nt (3' of S3) and 21 nt (5' of S4)
FANCD2-10A;FANCI = FANCD2-10A;FANCI (human?;human?, UniProt Q9BXW9;Q9NVI1 1-1451;1-1328, S64A;S178A;S319A;T596A;T608A;S705A;S1257A;S1401A;S1404A;S1418A|); experiment: EMSA; 25 mM Tris-HCl pH 7.5, 100 mM NaCl, 1 mM EDTA, 6% glycerol, 1 mM DTT, 1 nM DNA, room temperature 60-90 min; 4% PAGE 0.4x TBE at 4 C
FANCD2-10A;FANCI, sequence (Q9BXW9 whole entry S64A/S178A/S319A/T596A/T608A/S705A/S1257A/S1401A/S1404A/S1418A, chain 1 of 2): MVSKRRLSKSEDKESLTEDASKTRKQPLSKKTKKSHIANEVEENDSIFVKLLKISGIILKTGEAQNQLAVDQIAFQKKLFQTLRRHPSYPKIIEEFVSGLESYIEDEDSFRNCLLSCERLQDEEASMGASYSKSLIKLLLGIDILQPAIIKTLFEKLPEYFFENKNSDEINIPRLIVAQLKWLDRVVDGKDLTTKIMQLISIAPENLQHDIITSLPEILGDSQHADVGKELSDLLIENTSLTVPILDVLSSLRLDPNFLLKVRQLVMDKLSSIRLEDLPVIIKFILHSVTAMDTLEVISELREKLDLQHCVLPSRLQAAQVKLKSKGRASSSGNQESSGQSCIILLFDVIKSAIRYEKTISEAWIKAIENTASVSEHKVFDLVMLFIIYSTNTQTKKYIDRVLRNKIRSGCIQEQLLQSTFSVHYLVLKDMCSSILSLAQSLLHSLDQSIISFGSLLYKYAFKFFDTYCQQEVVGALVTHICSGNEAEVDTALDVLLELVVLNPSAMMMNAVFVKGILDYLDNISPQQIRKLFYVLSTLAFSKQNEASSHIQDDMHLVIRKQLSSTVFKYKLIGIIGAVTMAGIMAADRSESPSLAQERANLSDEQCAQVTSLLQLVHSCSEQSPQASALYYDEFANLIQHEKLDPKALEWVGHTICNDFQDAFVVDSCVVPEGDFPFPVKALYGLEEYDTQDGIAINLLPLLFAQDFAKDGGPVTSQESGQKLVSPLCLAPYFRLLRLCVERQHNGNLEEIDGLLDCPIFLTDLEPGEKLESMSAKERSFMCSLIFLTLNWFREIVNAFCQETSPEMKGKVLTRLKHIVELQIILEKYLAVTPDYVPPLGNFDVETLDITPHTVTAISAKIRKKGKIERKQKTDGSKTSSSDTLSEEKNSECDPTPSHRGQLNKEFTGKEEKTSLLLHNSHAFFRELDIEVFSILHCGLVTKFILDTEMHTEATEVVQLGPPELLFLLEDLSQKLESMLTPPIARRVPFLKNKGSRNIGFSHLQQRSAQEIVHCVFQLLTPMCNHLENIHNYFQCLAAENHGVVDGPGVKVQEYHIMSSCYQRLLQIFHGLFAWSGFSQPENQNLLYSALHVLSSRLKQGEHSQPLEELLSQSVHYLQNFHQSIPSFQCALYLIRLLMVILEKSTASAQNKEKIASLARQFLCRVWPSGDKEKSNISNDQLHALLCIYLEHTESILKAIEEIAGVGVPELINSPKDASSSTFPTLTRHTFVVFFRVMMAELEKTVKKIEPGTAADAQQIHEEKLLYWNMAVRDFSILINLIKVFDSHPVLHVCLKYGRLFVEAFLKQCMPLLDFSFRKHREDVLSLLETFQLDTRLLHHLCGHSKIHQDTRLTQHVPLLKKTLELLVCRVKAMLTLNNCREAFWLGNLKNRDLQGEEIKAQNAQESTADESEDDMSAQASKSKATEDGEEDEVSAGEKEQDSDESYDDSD
FANCD2-10A;FANCI, sequence (Q9NVI1 whole entry, chain 2 of 2): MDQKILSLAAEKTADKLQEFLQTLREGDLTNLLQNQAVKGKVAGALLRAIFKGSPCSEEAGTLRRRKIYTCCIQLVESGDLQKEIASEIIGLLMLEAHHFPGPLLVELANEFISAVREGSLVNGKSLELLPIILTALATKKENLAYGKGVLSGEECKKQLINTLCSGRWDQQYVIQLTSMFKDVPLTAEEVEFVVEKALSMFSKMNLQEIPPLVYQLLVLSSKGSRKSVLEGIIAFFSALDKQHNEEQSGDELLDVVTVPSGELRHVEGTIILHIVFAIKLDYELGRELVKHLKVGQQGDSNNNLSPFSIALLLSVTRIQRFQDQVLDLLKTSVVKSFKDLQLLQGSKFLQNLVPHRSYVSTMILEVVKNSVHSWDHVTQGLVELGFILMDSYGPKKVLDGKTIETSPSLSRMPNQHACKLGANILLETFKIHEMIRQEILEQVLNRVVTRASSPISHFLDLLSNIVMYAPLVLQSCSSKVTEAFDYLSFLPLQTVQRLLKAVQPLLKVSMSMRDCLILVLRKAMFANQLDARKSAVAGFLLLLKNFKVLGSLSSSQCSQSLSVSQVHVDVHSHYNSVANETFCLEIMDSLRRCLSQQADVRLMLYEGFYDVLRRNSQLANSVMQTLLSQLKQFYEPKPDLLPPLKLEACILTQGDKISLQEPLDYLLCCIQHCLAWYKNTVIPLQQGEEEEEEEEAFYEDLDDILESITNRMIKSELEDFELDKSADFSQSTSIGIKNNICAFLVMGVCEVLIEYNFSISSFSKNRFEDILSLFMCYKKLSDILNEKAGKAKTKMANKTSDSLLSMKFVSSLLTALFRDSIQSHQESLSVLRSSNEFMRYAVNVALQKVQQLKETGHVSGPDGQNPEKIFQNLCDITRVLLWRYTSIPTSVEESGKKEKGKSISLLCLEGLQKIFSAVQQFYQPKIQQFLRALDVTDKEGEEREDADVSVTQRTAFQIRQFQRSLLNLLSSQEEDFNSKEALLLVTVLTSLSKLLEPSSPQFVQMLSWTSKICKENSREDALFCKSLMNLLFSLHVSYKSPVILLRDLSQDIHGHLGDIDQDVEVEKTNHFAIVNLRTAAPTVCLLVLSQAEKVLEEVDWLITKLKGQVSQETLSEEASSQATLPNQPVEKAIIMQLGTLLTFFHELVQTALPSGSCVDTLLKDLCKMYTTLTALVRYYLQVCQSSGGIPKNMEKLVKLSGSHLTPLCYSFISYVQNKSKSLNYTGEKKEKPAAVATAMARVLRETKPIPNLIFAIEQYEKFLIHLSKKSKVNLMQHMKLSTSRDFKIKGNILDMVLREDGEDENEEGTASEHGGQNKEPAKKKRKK

FANCD2 WT;FANCI = FANCD2 WT;FANCI (human?;human?, UniProt Q9BXW9;Q9NVI1 1-1451;1-1328, |); experiment: as above
FANCD2 WT;FANCI, sequence (Q9BXW9 whole entry, chain 1 of 2): as the sequence (Q9BXW9 whole entry S64A/S178A/S319A/T596A/T608A/S705A/S1257A/S1401A/S1404A/S1418A, chain 1 of 2) above, with A64S, A178S, A319S, A596T, A608T, A705S, A1257S, A1401S, A1404S, A1418S counted along it
FANCD2 WT;FANCI, sequence (Q9NVI1 whole entry, chain 2 of 2): as the sequence (Q9NVI1 whole entry, chain 2 of 2) above

FANCD2-10D;FANCI = FANCD2-10D;FANCI (human?;human?, UniProt Q9BXW9;Q9NVI1 1-1451;1-1328, S64D;S178D;S319D;T596D;T608D;S705D;S1257D;S1401D;S1404D;S1418D|); experiment: EMSA; stronger than WT and 10A; 25 mM Tris-HCl pH 7.5, 100 mM NaCl, 1 mM EDTA, 6% glycerol, 1 mM DTT, 1 nM DNA, room temperature 60-90 min; 4% PAGE 0.4x TBE at 4 C
FANCD2-10D;FANCI, sequence (Q9BXW9 whole entry S64D/S178D/S319D/T596D/T608D/S705D/S1257D/S1401D/S1404D/S1418D, chain 1 of 2): as the sequence (Q9BXW9 whole entry S64A/S178A/S319A/T596A/T608A/S705A/S1257A/S1401A/S1404A/S1418A, chain 1 of 2) above, with A64D, A178D, A319D, A596D, A608D, A705D, A1257D, A1401D, A1404D, A1418D counted along it
FANCD2-10D;FANCI, sequence (Q9NVI1 whole entry, chain 2 of 2): as the sequence (Q9NVI1 whole entry, chain 2 of 2) above

Measured: binding result

B1: ICL14 Y-shaped DNA (stalled fork mimic) (dsDNA)
DNA 1: CATTGTGAATTCGCCTCTCTGTCTAGCCGAAGCTCGAAACGATCTTGTGC
DNA 2: GTCCATCAAAGTTCGACTGTGCGGCTAGACAGAGAGGCGAATTCACAATG
binds: FANCD2-10A;FANCI | FANCD2 WT;FANCI | FANCD2-10D;FANCI
